Values of other authors in publication PMC6325607.

System: Cys149

Cytosolic glyceraldehyde-3-phosphate dehydrogenase (GAPDH) (Arabidopsis thaliana)
pKa: 5.65
